Key:
[1] = biological target: SIV surface glycoprotein gp120 (SIVmneE11S), on virions (SIV (strain SIVmneE11S)) (UniProt P05885); assay: cryo-EM structure; cryo-electron tomography of vitrified intact SIVmneE11S virions; 2,986 spikes extracted, aligned and averaged with 3-fold symmetrisation; 28 Å (0.5 FSC); Env unliganded, in situ on the viral membrane
[2] = biological target: SIV transmembrane glycoprotein gp41 (SIVmneE11S), naturally truncated intra-viral domain of 17 amino acids, on virions (SIV (strain SIVmneE11S)) (UniProt P05885); assay: as above

Row | Substance | stoichiometry N [1] | stoichiometry N [2]
1 | SIV surface glycoprotein gp120 (SIVmneE11S), on virions (from UniProt P05885 23-528) (natural protein) | 3 | 
2 | SIV transmembrane glycoprotein gp41 (SIVmneE11S), naturally truncated intra-viral domain of 17 amino acids, on virions (from UniProt P05885 529-882) (natural protein) |  | 3

Source: paper PMC1557830
